Tests used:
human ENPP3 on cells [1] = molecular target: T1, human ENPP3 on cells (human, UniProt O14638 1-875); experiment: cell-based or functional assay
T1 sequence (looked up): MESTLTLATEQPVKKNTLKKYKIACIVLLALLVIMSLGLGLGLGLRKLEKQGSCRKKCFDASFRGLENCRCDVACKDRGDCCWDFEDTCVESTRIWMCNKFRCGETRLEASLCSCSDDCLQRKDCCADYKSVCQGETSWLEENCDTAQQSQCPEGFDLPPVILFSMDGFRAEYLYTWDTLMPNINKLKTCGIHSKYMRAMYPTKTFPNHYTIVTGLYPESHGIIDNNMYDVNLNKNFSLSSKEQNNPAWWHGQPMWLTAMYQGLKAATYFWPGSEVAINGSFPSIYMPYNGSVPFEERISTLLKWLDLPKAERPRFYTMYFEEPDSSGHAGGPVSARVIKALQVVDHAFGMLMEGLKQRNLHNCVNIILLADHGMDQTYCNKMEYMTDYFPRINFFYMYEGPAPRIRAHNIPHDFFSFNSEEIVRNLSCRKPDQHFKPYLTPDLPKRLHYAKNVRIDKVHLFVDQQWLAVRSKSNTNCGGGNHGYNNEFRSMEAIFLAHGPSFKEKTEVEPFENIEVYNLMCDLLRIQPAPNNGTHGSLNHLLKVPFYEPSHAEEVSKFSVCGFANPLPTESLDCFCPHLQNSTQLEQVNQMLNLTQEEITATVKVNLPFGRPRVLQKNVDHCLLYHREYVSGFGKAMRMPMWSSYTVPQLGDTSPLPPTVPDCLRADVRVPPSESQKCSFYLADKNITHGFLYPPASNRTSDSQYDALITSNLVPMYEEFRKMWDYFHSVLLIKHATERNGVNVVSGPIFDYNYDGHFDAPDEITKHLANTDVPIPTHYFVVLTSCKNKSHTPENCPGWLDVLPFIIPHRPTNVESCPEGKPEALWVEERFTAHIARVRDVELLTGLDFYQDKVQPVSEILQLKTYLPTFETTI

[2] = molecular target: T2, cynomolgus monkey ENPP3 on HepG2-KO cyENPP3 OE cells (cynomolgus monkey, UniProt A0A2K5TKP4 1-874); experiment: cell-based or functional assay
T2 sequence: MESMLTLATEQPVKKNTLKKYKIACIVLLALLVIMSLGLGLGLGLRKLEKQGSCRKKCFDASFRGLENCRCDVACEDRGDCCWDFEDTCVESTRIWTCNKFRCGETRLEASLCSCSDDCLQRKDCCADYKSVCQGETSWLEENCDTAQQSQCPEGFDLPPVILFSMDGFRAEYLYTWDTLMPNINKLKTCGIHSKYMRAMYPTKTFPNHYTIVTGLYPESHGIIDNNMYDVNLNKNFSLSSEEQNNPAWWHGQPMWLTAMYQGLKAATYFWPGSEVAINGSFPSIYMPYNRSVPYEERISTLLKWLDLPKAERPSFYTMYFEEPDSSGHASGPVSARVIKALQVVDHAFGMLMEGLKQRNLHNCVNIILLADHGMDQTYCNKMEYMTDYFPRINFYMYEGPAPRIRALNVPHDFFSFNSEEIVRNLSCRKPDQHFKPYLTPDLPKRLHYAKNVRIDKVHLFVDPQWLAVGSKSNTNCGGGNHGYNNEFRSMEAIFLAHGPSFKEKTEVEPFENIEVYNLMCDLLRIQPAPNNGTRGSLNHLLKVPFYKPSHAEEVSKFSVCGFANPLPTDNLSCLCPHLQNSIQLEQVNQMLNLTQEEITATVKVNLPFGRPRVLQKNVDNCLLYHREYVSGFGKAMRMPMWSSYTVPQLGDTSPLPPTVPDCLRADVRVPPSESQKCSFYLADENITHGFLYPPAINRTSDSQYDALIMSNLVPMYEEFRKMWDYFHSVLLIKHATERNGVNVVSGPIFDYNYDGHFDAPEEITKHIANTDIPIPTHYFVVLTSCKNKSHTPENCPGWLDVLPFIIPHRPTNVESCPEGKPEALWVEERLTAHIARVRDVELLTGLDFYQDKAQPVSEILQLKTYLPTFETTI

human ENPP3 on cells [3] = molecular target: T1, human ENPP3 on cells; experiment: flow cytometry on A704 cells
human CD3 on T cells = molecular target: T3, human CD3 on T cells (human, UniProt P07766 23-207); experiment: flow cytometry on human T cells, donor 110044049
T3 construct: on T cells it stands in the TCR-CD3 complex; also called human T cells; T cells isolated from healthy human donors
T3 sequence (P07766 23-207 limits assumed): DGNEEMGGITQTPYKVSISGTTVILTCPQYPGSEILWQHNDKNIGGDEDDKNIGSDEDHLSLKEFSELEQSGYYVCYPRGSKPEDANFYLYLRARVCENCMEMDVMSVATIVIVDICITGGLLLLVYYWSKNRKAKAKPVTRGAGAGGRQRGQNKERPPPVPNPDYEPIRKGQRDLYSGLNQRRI

B1: NPP3B815 (bispecific antibody, human IgG1, kappa, L234A L235A)
heavy 1: EIVLTQSPATLSASPGERVTLSCSASSSVSYMNWYQQKPGCAPRRWIYDSSKLASGVPARFSGSGSGRDYTLTISSLEPEDFAVYYCQQWSRNPPTFGGGTKVEIKGGGSGGSGGCPPCGGSGGQVQLVQSGAEVKKPGSSVKVSCKASGYTFTRSTMHWVKQAPGQGLEWIGYINPSSAYTNYNQKFQGRVTLTADKSTSTAYMELSSLRSEDTAVYYCASPQVHYDYAGFPYWGCGTLVTVSSEPKSSDKTHTCPPCPAPEAAGGPSVFLFPPKPKDTLMISRTPEVTCVVVSVSHEDPEVKFNWYVDGVEVHNAKTKPREEQYNSTYRVVSVLTVLHQDWLNGKEYKCKVSNKALPAPIEKTISKAKGQPREPQVYTLPPSREEMTKNQVSLWCLVKGFYPSDIAVEWESNGQPENNYKTTPPVLDSDGSFFLYSKLTVDKSRWQQGNVFSCSVMHEALHNHYTQKSLSLSPGK
heavy 2: EVQLVESGGGRVKPGGSLRLSCAASGFTFSDYSMNWVRQAPGKGLEWVSSISSISSYVKYADSVKGRFTMSRDNAKNSLFLQMNSLRDEDMAVYYCARGHYFDYWGQGTLVTVSSASTKGPSVFPLAPSSKSTSGGTAALGCLVKDYFPEPVTVSWNSGALTSGVHTFPAVLQSSGLYSLSSVVTVPSSSLGTQTYICNVNHKPSNTKVDKKVEPKSCDKTHTCPPCPAPEAAGGPSVFLFPPKPKDTLMISRTPEVTCVVVSVSHEDPEVKFNWYVDGVEVHNAKTKPREEQYNSTYRVVSVLTVLHQDWLNGKEYKCKVSNKALPAPIEKTISKAKGQPREPQVYTLPPSREEMTKNQVSLSCAVKGFYPSDIAVEWESNGQPENNYKTTPPVLDSDGSFFLVSKLTVDKSRWQQGNVFSCSVMHEALHNRFTQKSLSLSPGK
light: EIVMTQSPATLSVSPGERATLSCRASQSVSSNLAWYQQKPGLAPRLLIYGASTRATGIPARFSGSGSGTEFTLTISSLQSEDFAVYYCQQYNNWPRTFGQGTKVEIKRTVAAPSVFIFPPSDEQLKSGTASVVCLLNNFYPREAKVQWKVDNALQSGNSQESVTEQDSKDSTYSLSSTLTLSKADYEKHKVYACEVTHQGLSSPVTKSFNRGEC
notes: HC2 carries the NPP3B56 Fab and the hole T366S, L368A, Y407V; Fc with L234A, L235A, D265S; The CPPC linker cysteines form disulfides with engineered Cys at L42 and H105 (Chothia); also called NPP3B56×CD3B2030-N106A; ENPP3×CD3 (NPP3B815)
- killing EC50; A704; PBMC donor 110040278; E:T 3:1 (human ENPP3 on cells [1]): 52 pM
- killing EC50; A704; PBMC donor 110040278; E:T 5:1 (human ENPP3 on cells [1]): 28 pM
- killing EC50; A704; PBMC donor 110042496; E:T 3:1 (human ENPP3 on cells [1]): 97 pM
- killing EC50; A704; PBMC donor 110042496; E:T 5:1 (human ENPP3 on cells [1]): 61 pM
- killing EC50; A704; PBMC donor 110042593; E:T 1:1 (human ENPP3 on cells [1]): 124 pM
- killing EC50; A704; PBMC donor 110042593; E:T 3:1 (human ENPP3 on cells [1]): 39 pM
- killing EC50; A704; PBMC donor 110042593; E:T 5:1 (human ENPP3 on cells [1]): 15 pM
- killing EC50; A704; PBMC donor 110044049; E:T 1:1 (human ENPP3 on cells [1]): 131 pM
- killing EC50; A704; PBMC donor 110044049; E:T 3:1 (human ENPP3 on cells [1]): 52 pM
- killing EC50; A704; PBMC donor 110044049; E:T 5:1 (human ENPP3 on cells [1]): 16 pM
- killing EC50; A704; PBMC donor 110048457; E:T 3:1 (human ENPP3 on cells [1]): 46 pM
- killing EC50; A704; PBMC donor 110048457; E:T 5:1 (human ENPP3 on cells [1]): 13 pM
- killing EC50; A704; PBMC donor 888668965; E:T 1:1 (human ENPP3 on cells [1]): 107 pM
- killing EC50; A704; PBMC donor 888668965; E:T 3:1 (human ENPP3 on cells [1]): 36 pM
- killing EC50; A704; PBMC donor 888668965; E:T 5:1 (human ENPP3 on cells [1]): 15 pM
- killing EC50; VMRCRCW; PBMC donor 110040278; E:T 5:1 (human ENPP3 on cells [1]): 33 pM
- killing EC50; VMRCRCW; PBMC donor 110042496; E:T 5:1 (human ENPP3 on cells [1]): 65 pM
- killing EC50; VMRCRCW; PBMC donor 110042593; E:T 5:1 (human ENPP3 on cells [1]): 33 pM
- killing EC50; VMRCRCW; PBMC donor 110044049; E:T 5:1 (human ENPP3 on cells [1]): 51 pM
- killing EC50; VMRCRCW; PBMC donor 110048457; E:T 5:1 (human ENPP3 on cells [1]): 63 pM
- killing EC50; VMRCRCW; PBMC donor 888668965; E:T 5:1 (human ENPP3 on cells [1]): 62 pM
- Cytotox. EC50; HepG2-KO cyno ENPP3-OE; human T cells; E:T 3:1 [2]: 79 pM
- T-cell activation EC50; HepG2-KO cyno ENPP3-OE; human T cells; E:T 3:1 [2]: 23 pM
- EC50 (human ENPP3 on cells [3]): 1010 pM
- EC50 (human CD3 on T cells): 188000 pM

Source: US20250163182A1 (Janssen / Centocor, published 2025)
